Paper PMC3463815 (Scientific Reports, 2012)

Target: T1, VEGF_(34-121), 88-residue VEGF fragment displayed on S. carnosus (Homo sapiens)
T1 chain: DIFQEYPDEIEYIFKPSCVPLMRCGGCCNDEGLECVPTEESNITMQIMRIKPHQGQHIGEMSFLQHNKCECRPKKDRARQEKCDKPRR
Experiment: flow cytometry on cells

B1: Avastin (antibody, V domains shown)
VH: EVQLVESGGGLVQPGGSLRLSCAASGYTFTNYGMNWVRQAPGKGLEWVGWINTYTGEPTYAADFKRRFTFSLDTSKSTAYLQMNSLRAEDTAVYYCAKYPHYYGSSHWYFDVWGQGTLVTVSS
VL: DIQMTQSPSSLSASVGDRVTITCSASQDISNYLNWYQQKPGKAPKVLIYFTSSLHSGVPSRFSGSGSGTDFTLTISSLQPEDFATYYCQQYSTVPWTFGQGTKVEIK
Q: Does B1 bind?
A: binds
